In article PMC9982066, “Inhibition of Ehrlichia chaffeensis infection by cell-permeable macrocyclic peptides that bind type IV secretion effector Etf-1” (PNAS Nexus, 2023):
Starred links: 1 amine or outer side, 2 acyl side, 3 side chain; linkers in the order of their positions; H or OH if unused. Positions of bridges follow the written chain, without caps; N, C: chain ends. Non-standard residues stand in square brackets, D forms with d. No end group written: not given here. Trimesoyl = O=C(c1cc(C(=O)[*:2])cc(C(=O)[*:3])c1)[*:1]; Phe(4-Cl) = N[C@@H](Cc1ccc(Cl)cc1)C(=O)O; Phe(4-F) = N[C@@H](Cc1ccc(F)cc1)C(=O)O; 2Nal = N[C@@H](Cc1ccc2ccccc2c1)C(=O)O; d2Nal = N[C@H](Cc1ccc2ccccc2c1)C(=O)O; βAsp = O=C(O)[C@H](CC(=O)[*:2])N[*:1]; Nle = CCCC[C@H](N)C(=O)O; Orn = NCCC[C@H](N)C(=O)O; Dap = NC[C@H](N)C(=O)O; TMA = not defined here

B1: biotinylated full-length Etf-1 protein (natural protein, E. chaffeensis, UniProt Q2GG12 1-380, looked up)
chain: MLTFLKKGANVVIKAAITPTTSKLPHQESVGKYLGGMLKSIIPGQKDPAEKHFDLRMHNRTHKLGVELPARTRIDGHEQEVALKVPSYKLPYQTLQKFAAWQEQDKEGEVEETKKDTLTSLINPVSATQEFIRSNTADKYFEKLKALDQQLKEIGGKVTVNSTPGRYKQGLTIELDVSNKSRIAIEKDVRLVLEGLGINDEELVKTFTKRLYKSSTDKKMSSADIHTEKTSSNTDSKDNSNNQDHDIVSPAKRHGSDTVSAVQRQGDDILSSSQEQSSKTGSPTNSTGISNSDFSLTNPQNMPYSRTPMQSSQMLQQLQNQILMQQKPERIFSQAMPTVMQQEIDEIAEDLCQGLNEGPTQGNSNNIGKHFSNPGKVHAR
modifications: biotin (two equivalents of NHS-PEG4-D-Biotin, pH 8.0)
notes: source: E. coli BL21(DE3), purified (HisPur Cobalt resin, size exclusion chromatography), then biotinylated
B2: FAM-labeled macrocyclic peptide B7-133-5 (peptide)
chain: YDHDHLXFXRRRRX
modifications: not fully specified; same peptide as Dm35 (Table S3); bicyclic via TMA to Dap7 and Dap14; D2=isoAsp, D-Leu6, X7/X14=Dap, F8=4-chloro-Phe, X9=D-2-Nal, D-Arg10, D-Arg12; linker Lys(FAM) left out
B3: FAM-labeled macrocyclic peptide B13 (peptide)
chain: EHFEHAXFXRRRX
modifications: not fully specified; carboxyfluorescein (FAM) at the C-terminus through a β-Ala-β-Ala-Lys linker
B4: FAM-labeled macrocyclic peptide B22 (peptide)
chain: VXNHAXFXRRRRX
modifications: not fully specified; carboxyfluorescein (FAM) at the C-terminus through a β-Ala-β-Ala-Lys linker
B5: FAM-labeled macrocyclic peptide B17 (peptide)
chain: XFGDYXFXRRRRX
modifications: not fully specified; carboxyfluorescein (FAM) at the C-terminus through a β-Ala-β-Ala-Lys linker

Target: T1, Ehrlichia translocated factor-1 (Etf-1) (Ehrlichia chaffeensis, UniProt Q2GG12 1-380)
Experiment: fluorescence polarisation
Conditions: both partners purified

Row | Binder | Kd [µM]
1 | IHA[Orn][dK][Dap]F[2Nal]RRR[Dap] (linker 6-12 via TMA; not fully specified (C-terminus); reading uncertain) [macrocyclic peptide C19, FAM-labelled] | > 25
2 | QHS[dV][Dap][dF][2Nal]R[dR]R[Dap] (linker 5-11 via TMA; not fully specified (C-terminus); reading uncertain) [macrocyclic peptide C6, FAM-labelled] | > 25
3 | IDA[Nle]H[Dap]F[2Nal]RRR[Dap] (linker 6-12 via TMA; not fully specified (C-terminus); reading uncertain) [macrocyclic peptide C9, FAM-labelled] | > 25

Target: T1, Ehrlichia translocated factor-1 (Etf-1)
Experiment: fluorescence polarisation
Conditions: both partners purified
Remark: another data set of the same source

Row | Binder | Kd [µM]
4 | Y[Nle][dE]QG[dL][Dap][Phe(4-Cl)][d2Nal][dR]R[dR]R[Dap]-{Lys(FAM)} (linker N-7-14 via Trimesoyl; not fully specified (N-terminus)) [macrocyclic peptide B7-133-4, FAM-labelled] | 6.5 ± 0.1
5 | Y[βAsp]HDH[dL][Dap][Phe(4-Cl)][d2Nal][dR]R[dR]R[Dap]-{Lys(FAM)} (linker N-7-14 via Trimesoyl; not fully specified (N-terminus)) [macrocyclic peptide B7-133-5, FAM-labelled] | > 10
6 | YH[d2Nal]QS[Phe(4-F)][dL][Dap][Phe(4-Cl)][d2Nal][dR]R[dR]R[Dap]-{Lys(FAM)} (linker N-8-15 via Trimesoyl; not fully specified (N-terminus)) [macrocyclic peptide B7-131-2, FAM-labelled] | 8.8 ± 0.9
7 | Y[dA]D[dY][dA][dL][Dap][Phe(4-Cl)][d2Nal][dR]R[dR]R[Dap]-{Lys(FAM)} (linker N-7-14 via Trimesoyl; not fully specified (N-terminus)) [macrocyclic peptide B7-133-2, FAM-labelled] | 8.2 ± 1.2

Target: T2, recombinant full-length BECN1 protein (Beclin 1) (human, UniProt Q14457 1-450)
T2 construct: also called ATG6; source: size exclusion chromatography
Experiment: SPR; OpenSPR; biotinylated rEtf-1 (1 μM) immobilised on a streptavidin sensor chip, BECN1 dilutions as analyte; 20 mM Tris pH 8.0, 100 mM NaCl, 0.05% Tween 20; 30 µL/min
Conditions: both partners purified

T2 sequence (Q14457 whole entry): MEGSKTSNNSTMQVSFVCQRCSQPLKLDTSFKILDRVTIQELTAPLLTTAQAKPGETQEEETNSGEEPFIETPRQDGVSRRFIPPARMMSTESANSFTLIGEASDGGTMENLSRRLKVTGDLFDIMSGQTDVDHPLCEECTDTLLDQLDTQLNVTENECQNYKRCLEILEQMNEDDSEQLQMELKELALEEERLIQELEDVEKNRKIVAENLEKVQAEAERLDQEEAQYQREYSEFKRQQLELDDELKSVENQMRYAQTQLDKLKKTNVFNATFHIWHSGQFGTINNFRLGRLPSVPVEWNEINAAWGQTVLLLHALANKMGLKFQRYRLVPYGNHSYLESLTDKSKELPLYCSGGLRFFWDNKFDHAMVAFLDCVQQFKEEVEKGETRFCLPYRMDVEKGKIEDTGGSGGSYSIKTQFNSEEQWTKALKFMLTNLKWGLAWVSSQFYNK

Row | Binder | Kd [µM]
8 | B1 | 0.06 ± 0.001

Target: Ehrlichia translocated factor-1 (Etf-1), recombinant 6×His-Etf-1 fusion protein (E. chaffeensis, UniProt Q2GG12 1-380)
Experiment: fluorescence polarisation
Conditions: both partners purified

Row | Binder | Kd [µM]
9 | B2 | > 10
10 | B3 | > 25
11 | B4 | > 25
12 | B5 | > 25
